Series [1] has as its system T1, O=C(O)C[C@H](O)C(=O)O.
T1 construct: synthetic gene, full length, in-frame C-terminal GFP (EGFP), pCDNA3.1; cRNA expressed in Xenopus laevis oocytes
Briefly: two-electrode voltage clamp, transport currents in oocytes. The series is classed as cell-based, Culex quinquefasciatus. Particulars: -60 mV, 96 mM NaCl Ringer, pH 7.5.

The test system of series [2] is T2, N[C@@H](CCC(=O)O)C(=O)O.
T2 construct: synthetic gene, full length, in-frame C-terminal GFP (EGFP), pCDNA3.1; cRNA expressed in Xenopus laevis oocytes
The description is as above. The series is classed as cell-based, Culex quinquefasciatus. Particulars: -60 mV, 96 mM NaCl Ringer, pH 7.5.

The target in series [3] is T3, CuqDCT (Culex quinquefasciatus, UniProt B0W0K5).
T3 construct: gene 6031434; synthetic gene, full length, in-frame C-terminal GFP (EGFP), pCDNA3.1; cRNA expressed in Xenopus laevis oocytes
T3 sequence (B0W0K5 1-483): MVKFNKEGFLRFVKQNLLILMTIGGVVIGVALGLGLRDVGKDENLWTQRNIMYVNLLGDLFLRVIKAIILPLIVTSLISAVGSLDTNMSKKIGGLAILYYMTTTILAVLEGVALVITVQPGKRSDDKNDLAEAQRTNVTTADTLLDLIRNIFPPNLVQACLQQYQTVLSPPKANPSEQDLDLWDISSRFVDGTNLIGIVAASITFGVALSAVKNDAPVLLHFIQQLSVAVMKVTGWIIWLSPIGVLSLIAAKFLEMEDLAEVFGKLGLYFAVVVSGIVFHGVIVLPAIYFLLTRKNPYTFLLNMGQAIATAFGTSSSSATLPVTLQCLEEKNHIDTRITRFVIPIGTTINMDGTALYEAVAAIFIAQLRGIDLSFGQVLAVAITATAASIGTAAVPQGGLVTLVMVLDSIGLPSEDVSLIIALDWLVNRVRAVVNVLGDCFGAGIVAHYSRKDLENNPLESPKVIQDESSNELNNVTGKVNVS
Described as above. In kind it is cell-based. Particulars: -60 mV; 96 mM NaCl Ringer, pH 7.5.

Substrate in series [4]: O=C(O)CCC(=O)C(=O)O
The description is as above. The series is classed as cell-based, Culex quinquefasciatus. Particulars: -60 mV, 96 mM NaCl Ringer, pH 7.5.

Substrate in series [5]: N[C@@H](CCC(=O)O)C(=O)O
Described as above. In kind it is cell-based, Culex quinquefasciatus. Particulars: -60 mV, 96 mM NaCl Ringer, pH 7.5.

Substrate in series [6]: O=C(O)C[C@H](O)C(=O)O
The series is described as follows: cells, lysate or membranes. Particulars: -60 mV, 96 mM NaCl Ringer, pH 7.5.

This note sets out measurements from article PMC3737229, “Novel Dicarboxylate Selectivity in an Insect Glutamate Transporter Homolog” (PLoS ONE, 2013).

By Km is commonly meant the substrate concentration at which the rate is half of its maximum. Regarding CuqDCT (Culex quinquefasciatus; N428D), the Km in series [1] is 8800 ± 1500 µM; in series [2], 13.8 ± 1.3 µM.

Consider `O=C(O)CCC(=O)O` [succinate], for which the Km in series [3] amounted to 50.8 ± 2.3 µM.

B1: CuqDCT (Culex quinquefasciatus) (protein)
chain: MVKFNKEGFLRFVKQNLLILMTIGGVVIGVALGLGLRDVGKDENLWTQRNIMYVNLLGDLFLRVIKAIILPLIVTSLISAVGSLDTNMSKKIGGLAILYYMTTTILAVLEGVALVITVQPGKRSDDKNDLAEAQRTNVTTADTLLDLIRNIFPPNLVQACLQQYQTVLSPPKANPSEQDLDLWDISSRFVDGTNLIGIVAASITFGVALSAVKNDAPVLLHFIQQLSVAVMKVTGWIIWLSPIGVLSLIAAKFLEMEDLAEVFGKLGLYFAVVVSGIVFHGVIVLPAIYFLLTRKNPYTFLLNMGQAIATAFGTSSSSATLPVTLQCLEEKNHIDTRITRFVIPIGTTINMDGTALYEAVAAIFIAQLRGIDLSFGQVLAVAITATAASIGTAAVPQGGLVTLVMVLDSIGLPSEDVSLIIALDWLVNRVRAVVNVLGDCFGAGIVAHYSRKDLENNPLESPKVIQDESSNELNNVTGKVNVS
notes: synthetic gene, full length, in-frame C-terminal GFP (EGFP), pCDNA3.1; cRNA expressed in Xenopus laevis oocytes
As for B1, the Km in series [4] was 20.2 ± 1.2 µM; in series [5], 1085 ± 96 µM; in series [6], 10.5 ± 0.5 µM.
